No end group written: not given here. FAM = 5,6-carboxyfluorescein
Legend:
Test in all cases: fluorescence polarisation
[1] = biological target: Trf4 NIM peptide (S. cerevisiae)
Nrd1 CID = biological target: T1, Nrd1 CID (S. cerevisiae, UniProt P53617 1-153)
T1 sequence: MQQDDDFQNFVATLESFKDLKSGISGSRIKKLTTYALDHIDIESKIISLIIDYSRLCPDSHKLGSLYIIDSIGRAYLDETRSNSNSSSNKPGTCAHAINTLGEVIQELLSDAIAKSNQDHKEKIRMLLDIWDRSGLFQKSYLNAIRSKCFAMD

Nrd1 CID S25D = biological target: T2, Nrd1 CID S25D (S. cerevisiae, UniProt P53617 1-153, S25D)
T2 sequence: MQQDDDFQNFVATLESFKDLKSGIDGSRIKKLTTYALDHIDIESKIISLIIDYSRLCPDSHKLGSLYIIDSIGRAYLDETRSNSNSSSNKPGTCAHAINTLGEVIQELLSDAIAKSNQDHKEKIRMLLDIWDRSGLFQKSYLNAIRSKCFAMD

Nrd1 CID R28D = biological target: T3, Nrd1 CID R28D (S. cerevisiae, UniProt P53617 1-153, R28D)
T3 sequence: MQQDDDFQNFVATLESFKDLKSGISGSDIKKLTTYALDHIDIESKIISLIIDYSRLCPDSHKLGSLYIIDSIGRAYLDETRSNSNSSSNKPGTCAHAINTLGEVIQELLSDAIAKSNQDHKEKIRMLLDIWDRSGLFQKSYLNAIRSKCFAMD

Nrd1 CID K21D = biological target: T4, Nrd1 CID K21D (S. cerevisiae, UniProt P53617 1-153, K21D)
T4 sequence: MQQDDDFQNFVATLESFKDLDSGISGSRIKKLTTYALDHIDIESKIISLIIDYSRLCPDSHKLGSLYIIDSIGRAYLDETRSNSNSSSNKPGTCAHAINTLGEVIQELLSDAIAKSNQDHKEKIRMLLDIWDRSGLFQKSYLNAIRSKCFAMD

Nrd1 CID L20D = biological target: T5, Nrd1 CID L20D (S. cerevisiae, UniProt P53617 1-153, L20D)
T5 sequence: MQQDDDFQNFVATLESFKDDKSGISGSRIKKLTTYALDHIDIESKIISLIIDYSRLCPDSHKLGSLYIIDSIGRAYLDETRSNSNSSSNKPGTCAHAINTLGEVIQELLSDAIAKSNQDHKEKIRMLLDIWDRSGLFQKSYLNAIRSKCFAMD

Binder	Kd [1]	Kd (Nrd1 CID)	binding result (Nrd1 CID S25D)	binding result (Nrd1 CID R28D)	binding result (Nrd1 CID K21D)	binding result (Nrd1 CID L20D)
Nrd1 CID (domain or fragment) MQQDDDFQNFVATLESFKDLKSGISGSRIKKLTTYALDHIDIESKIISLIIDYSRLCPDSHKLGSLYIIDSIGRAYLDETRSNSNSSSNKPGTCAHAINTLGEVIQELLSDAIAKSNQDHKEKIRMLLDIWDRSGLFQKSYLNAIRSKCFAMD	900 nM					
{FAM}-DDDEDDYTPSIS [Sen1 NIM peptide]		1200 ± 20 nM	binds	binds	binds	binds
